The record followed here is patent US20240084039A1.

Experiment [1] deals with pre-existing anti-drug antibodies (ADA) present in human sera. Kind of experiment: ELISA pre-existing ADA binding assay, confirmatory setup, test molecule coated, 40 human sera. (ELISA stands for enzyme-linked immunosorbent assay.)
For experiment [2] the target is unchanged. As to the kind of experiment: ELISA pre-existing ADA binding assay, confirmatory setup, test molecule coated, 20 human sera.
Experiment [3] has the same target. Kind of experiment: ELISA pre-existing ADA binding assay, confirmatory setup, test molecule coated, 20 human sera (second row for PRO1922).
Experiment [4] has the same target. As to the kind of experiment: ELISA pre-existing ADA binding assay, confirmatory setup, test molecule coated, 20 human sera (second row for PRO2230).

B1: PRO2762 (protein)
chain: DIQMTQSPASLSASVGDRVTITCQASQSIGTYLAWYQQKPGKPPKLLIYRAFILASGVPSRFSGSGSGTDFTLTISSLQPEDFATYYCQSNFYSDSTTIGPNAFGCGTKVTVLGGGGGSEVQLVESGGGRVQPGGSLRLSCAASGFSFSANYYPCWVRQAPGKGLEWIGCIYGGSSDITYDAQWTKGRFTISRDNSKNTVYLQMNSLRAEDTATYYCARSAWYSGWGGDLWGQGTQVTVSSGGGGSGGGGSGGGGSGGGGSIQMTQSPSSLSASVGDRVTITCQASQSISNRLAWYQQKPGKAPKLLIYSASTLASGVPSRFSGSGSGTDFTLTISSLQPEDFATYYCQSTYYGNDGNAFGTGTKVTVLGGGGGSEVQLVESGGGRVQPGGSLRLSCAASGFSFNSDYWIYWVRQAPGKCLEWIASIYGGSSGNTQYASWAQGRFTISRDNSKNTVYLQMNSLRAEDTATYFCARGYVDYGGATDLWGQGTQVTVSSGGGGSGGGGSIQMTQSPSSLSASVGDRVTITCQSSESVYSNNQLSWYQQKPGQPPKLLIYDASDLASGVPSRFSGSGSGTDFTLTISSLQPEDFATYYCAGGFSSSSDTAFGGGTKLTVLGGGGGSGGGGSGGGGSGGGGSEVQLVESGGGRVQPGGSLRLSCAASGFSLSSNAMGWVRQAPGKGLEYIGIISVGGFTYYASWAKGRFTISRDNSKNTVYLQMNSLRAEDTATYFCARDRHGGDSSGAFYLWGQGTQVTVSS
In experiment [1], B1 registered a % positives of total tested serum samples of 7.5% and a No of positive serum samples above 31.56% CCP (serum samples) of 3.

B2: PRO2764 (protein)
chain: DIQMTQSPASLSASVGDRVTITCQASQSIGTYLAWYQQKPGKPPKLLIYRAFILASGVPSRFSGSGSGTDFTLTISSLQPEDFATYYCQSNFYSDSTTIGPNAFGCGTKVTVLGGGGGSEVQLVESGGGRVQPGGSLRLSCAASGFSFSANYYPCWVRQAPGKGLEWIGCIYGGSSDITYDANWTKGRFTISRDNSKNTVYLQMNSLRAEDTATYYCARSAWYSGWGGDLWGQGTQVTVSSGGGGSGGGGSGGGGSGGGGSIQMTQSPSSLSASVGDRVTITCQASQSISNRLAWYQQKPGKAPKLLIYSASTLASGVPSRFSGSGSGTDFTLTISSLQPEDFATYYCQSTYYGNDGNAFGTGTKVTVLGGGGGSEVQLVESGGGRVQPGGSLRLSCAASGFSFNSDYWIYWVRQAPGKCLEWIASIYGGSSGNTQYASWAQGRFTISRDNSKNTVYLQMNSLRAEDTATYFCARGYVDYGGATDLWGQGTQVTVSSGGGGSGGGGSIQMTQSPSSLSASVGDRVTITCQSSESVYSNNQLSWYQQKPGQPPKLLIYDASDLASGVPSRFSGSGSGTDFTLTISSLQPEDFATYYCAGGFSSSSDTAFGGGTKLTVLGGGGGSGGGGSGGGGSGGGGSEVQLVESGGGRVQPGGSLRLSCAASGFSLSSNAMGWVRQAPGKGLEYIGIISVGGFTYYASWAKGRFTISRDNSKNTVYLQMNSLRAEDTATYFCARDRHGGDSSGAFYLWGQGTQVTVSS
In experiment [1], B2 came in with a % positives of total tested serum samples of 2.5% and a No of positive serum samples above 31.56% CCP (serum samples) of 1.

B3: PRO2765 (protein)
chain: DIQMTQSPASLSASVGDRVTITCQASQSIGTYLAWYQQKPGKPPKLLIYRAFILASGVPSRFSGSGSGTDFTLTISSLQPEDFATYYCQSNFYSDSTTIGPNAFGCGTKVTVLGGGGGSEVQLVESGGGRVQPGGSLRLSCAASGFSFSANYYPCWVRQAPGKGLEWIGCIYGGSSDITYDANWTKGRFTISRDNSKNTVYLQMNSLRAEDTATYYCARSAWYSGWGGDLWGQGTQVTVSSGGGGSGGGGSGGGGSGGGGSIQMTQSPSSLSASVGDRVTITCQASQSISNRLAWYQQKPGKAPKLLIYSASTLASGVPSRFSGSGSGTDFTLTISSLQPEDFATYYCQSTYYGNDGNAFGTGTKVTVLGGGGGSEVQLVESGGGRVQPGGSLRLSCAASGFSFNSDYWIYWVRQAPGKCLEWIASIYGGSSGNTQYASWAQGRFTISRDNSKNTVYLQMNSLRAEDTATYFCARGYVDYGGATDLWGQGTQVTVSSGGGGSGGGGSIQMTQSPSSLSASVGDRVTITCQSSESVYSNNQLSWYQQKPGQPPKLLIYDASDLASGVPSRFSGSGSGTDFTLTISSLQPEDFATYYCAGGFSSSSDTAFGCGTKLTVLGGGGGSGGGGSGGGGSGGGGSEVQLVESGGGRVQPGGSLRLSCAASGFSLSSNAMGWVRQAPGKCLEYIGIISVGGFTYYASWAKGRFTISRDNSKNTVYLQMNSLRAEDTATYFCARDRHGGDSSGAFYLWGQGTQVTVSS
B3: in experiment [1], the % positives of total tested serum samples turned out to be 2.5% and the No of positive serum samples above 31.56% CCP (serum samples) came out at 1.

B4: PRO2763 (protein)
chain: DIQMTQSPASLSASVGDRVTITCQASQSIGTYLAWYQQKPGKPPKLLIYRAFILASGVPSRFSGSGSGTDFTLTISSLQPEDFATYYCQSNFYSDSTTIGPNAFGCGTKVTVLGGGGGSEVQLVESGGGRVQPGGSLRLSCAASGFSFSANYYPCWVRQAPGKGLEWIGCIYGGSSDITYDAQWTKGRFTISRDNSKNTVYLQMNSLRAEDTATYYCARSAWYSGWGGDLWGQGTQVTVSSGGGGSGGGGSGGGGSGGGGSIQMTQSPSSLSASVGDRVTITCQASQSISNRLAWYQQKPGKAPKLLIYSASTLASGVPSRFSGSGSGTDFTLTISSLQPEDFATYYCQSTYYGNDGNAFGTGTKVTVLGGGGGSEVQLVESGGGRVQPGGSLRLSCAASGFSFNSDYWIYWVRQAPGKCLEWIASIYGGSSGNTQYASWAQGRFTISRDNSKNTVYLQMNSLRAEDTATYFCARGYVDYGGATDLWGQGTQVTVSSGGGGSGGGGSIQMTQSPSSLSASVGDRVTITCQSSESVYSNNQLSWYQQKPGQPPKLLIYDASDLASGVPSRFSGSGSGTDFTLTISSLQPEDFATYYCAGGFSSSSDTAFGCGTKLTVLGGGGGSGGGGSGGGGSGGGGSEVQLVESGGGRVQPGGSLRLSCAASGFSLSSNAMGWVRQAPGKCLEYIGIISVGGFTYYASWAKGRFTISRDNSKNTVYLQMNSLRAEDTATYFCARDRHGGDSSGAFYLWGQGTQVTVSS
In experiment [1], B4 returned a % positives of total tested serum samples of 2.5% and a No of positive serum samples above 31.56% CCP (serum samples) of 1.

B5: PRO1922 (scFv)
scFv: DIQMTQSPSSLSASVGDRVTITCQASESIYSSLAWYQQKPGKAPKLLIYLASTLASGVPSRFSGSGSGTDFTLTISSLQPEDFATYYCQSTDYTTSTHRNSFGTGTKVTVLGGGGGSGGGGSGGGGSGGGGSEVQLVESGGGLVQPGGSLRLSCAASGFSFSTTYYMCWVRQAPGKGLEWIGCTNTASSVRTYYATWAKGRFTISRDNSKNTVYLQMNSLRAEDTAVYYCARDMGFADYALNLWGQGTLVTVSS
In experiment [2], B5 showed a % positives of total tested serum samples of 80% and a No of positive serum samples above 30% CCP (serum samples) of 16. Further, in experiment [3], the % positives of total tested serum samples was determined as 80% and the No of positive serum samples above 30% CCP (serum samples) amounted to 16.

B6: PRO2230 (scFv)
scFv: DIQMTQSPASLSASVGDRVTITCQASQSIGTYLAWYQQKPGKPPKLLIYRAFILASGVPSRFSGSGSGTDFTLTISSLQPEDFATYYCQSNFYSDSTTIGPNAFGTGTKVTVLGGGGGSGGGGSGGGGSGGGGSEVQLVESGGGLVQPGGSLRLSCAASGFSFNSDYWIYWVRQAPGKGLEWIASIYGGSSGNTQYASWAQGRFTISRDNSKNTVYLQMNSLRAEDTAVYFCARGYVDYGGATDLWGQGTLVTVSS
Take B6: the % positives of total tested serum samples in experiment [2] worked out at 90%; in experiment [4], 76%. Moreover, the No of positive serum samples above 30% CCP (serum samples) came out at 18 in experiment [2] and 15 in experiment [4].
